Reference: publication PMC8086144, “A novel peptide antagonist of the human growth hormone receptor” (The Journal of Biological Chemistry, 2021)

T1: trypsin (bovine pancreas) (Bos taurus, UniProt P00760)
T1 construct: purchased Sigma-Aldrich; host or cells: bovine pancreas
T1 sequence (P00760 24-246): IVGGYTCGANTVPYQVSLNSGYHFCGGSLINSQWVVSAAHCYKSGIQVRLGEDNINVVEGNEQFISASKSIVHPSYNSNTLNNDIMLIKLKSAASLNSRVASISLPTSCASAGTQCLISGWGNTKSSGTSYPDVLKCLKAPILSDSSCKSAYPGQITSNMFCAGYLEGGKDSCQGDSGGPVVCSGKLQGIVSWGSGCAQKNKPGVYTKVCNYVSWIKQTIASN

T2: hPRLR (Homo sapiens, UniProt P16471)
T2 construct: T84 cells express high levels of hPRLR relative to hGHR (>1300:1); host or cells: T84 (human colon cancer), MALME-3M (human melanoma)
T2 sequence (P16471 25-622): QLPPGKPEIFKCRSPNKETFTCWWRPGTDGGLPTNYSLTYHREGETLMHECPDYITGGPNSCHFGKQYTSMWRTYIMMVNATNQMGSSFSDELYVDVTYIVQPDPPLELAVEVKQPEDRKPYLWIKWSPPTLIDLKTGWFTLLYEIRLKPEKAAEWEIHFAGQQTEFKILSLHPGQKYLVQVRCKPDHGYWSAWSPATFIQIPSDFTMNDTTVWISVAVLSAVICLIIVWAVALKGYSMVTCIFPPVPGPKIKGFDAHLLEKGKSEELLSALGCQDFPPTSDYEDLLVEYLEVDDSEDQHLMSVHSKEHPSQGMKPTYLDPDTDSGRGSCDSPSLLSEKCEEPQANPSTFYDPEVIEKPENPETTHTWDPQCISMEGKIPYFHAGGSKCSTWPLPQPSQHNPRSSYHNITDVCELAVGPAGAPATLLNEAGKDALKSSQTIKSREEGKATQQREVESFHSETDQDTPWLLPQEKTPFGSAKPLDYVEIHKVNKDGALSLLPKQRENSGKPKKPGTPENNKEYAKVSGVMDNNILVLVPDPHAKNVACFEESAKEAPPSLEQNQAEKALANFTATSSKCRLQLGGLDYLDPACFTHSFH

T3: human prolactin receptor (human (endogenous in T84, MALME-3M)) (UniProt P16471)
T3 sequence: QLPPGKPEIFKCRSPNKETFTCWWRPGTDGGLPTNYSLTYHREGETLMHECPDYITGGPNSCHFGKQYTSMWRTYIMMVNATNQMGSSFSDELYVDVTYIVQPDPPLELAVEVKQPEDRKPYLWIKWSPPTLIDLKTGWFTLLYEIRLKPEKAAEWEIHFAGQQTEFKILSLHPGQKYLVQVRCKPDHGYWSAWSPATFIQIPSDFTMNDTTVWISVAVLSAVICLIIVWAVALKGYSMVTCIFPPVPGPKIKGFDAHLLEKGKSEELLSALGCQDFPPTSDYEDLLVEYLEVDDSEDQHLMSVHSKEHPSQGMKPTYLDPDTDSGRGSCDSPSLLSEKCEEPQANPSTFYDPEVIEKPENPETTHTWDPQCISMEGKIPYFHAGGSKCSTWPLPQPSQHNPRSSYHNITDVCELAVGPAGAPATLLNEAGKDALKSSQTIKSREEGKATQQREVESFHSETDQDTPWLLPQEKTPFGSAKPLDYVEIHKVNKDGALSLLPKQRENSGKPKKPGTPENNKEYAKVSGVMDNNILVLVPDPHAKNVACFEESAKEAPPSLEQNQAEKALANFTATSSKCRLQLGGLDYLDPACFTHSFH

T4: mouse GHR (mouse (endogenous in L fibroblasts)) (UniProt P16882)
T4 sequence: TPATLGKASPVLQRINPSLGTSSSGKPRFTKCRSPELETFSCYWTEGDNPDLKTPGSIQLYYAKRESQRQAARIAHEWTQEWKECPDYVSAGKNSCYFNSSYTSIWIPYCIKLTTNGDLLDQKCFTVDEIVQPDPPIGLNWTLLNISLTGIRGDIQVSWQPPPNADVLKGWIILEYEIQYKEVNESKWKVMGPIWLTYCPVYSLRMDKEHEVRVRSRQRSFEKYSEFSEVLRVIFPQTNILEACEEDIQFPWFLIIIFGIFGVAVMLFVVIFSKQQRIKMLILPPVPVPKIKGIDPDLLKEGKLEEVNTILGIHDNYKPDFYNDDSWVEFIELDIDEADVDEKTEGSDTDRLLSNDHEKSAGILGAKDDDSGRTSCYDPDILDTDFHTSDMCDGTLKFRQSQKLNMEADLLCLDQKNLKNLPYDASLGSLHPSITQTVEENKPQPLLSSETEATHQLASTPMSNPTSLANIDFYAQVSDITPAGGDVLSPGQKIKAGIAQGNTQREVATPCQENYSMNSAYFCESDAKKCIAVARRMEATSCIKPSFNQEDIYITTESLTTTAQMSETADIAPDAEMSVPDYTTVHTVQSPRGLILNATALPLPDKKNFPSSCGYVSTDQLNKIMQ


Experiments:
[1] = molecular target: T1, trypsin (bovine pancreas); experiment: Trypsin degradation of hGH and pegvisomant (HPLC and Western blot); assay type: in vitro ADME; details: 4 μg/ml trypsin in digestion buffer pH 7.8, 37 °C, up to 8 h, 25 μg/ml protein
Experimental: (§1) The samples were then incubated at 95 °C for 5 min before being cooled on ice and stored at −80 °C. […] Following separation, the proteins were transferred to polyvinylidine difluoride membranes and subjected to Western blot analysis (vide infra). The fraction of intact protein was quantified by measuring the integrated density of each band contained within regions of the gel corresponding to “intact” or “degraded” proteins. […] These reactions were allowed to incubate at 37 °C for up to 8 h, with samples removed at selected timepoints for analysis. Following incubation, the samples were either mixed with 5× Laemmli loading buffer and subjected to SDS-PAGE for Western blot analysis (Fig. S5) or directly injected onto a C18 reversed-phase column for analysis by HPLC as described above for the S1H peptide (Fig. S4).

hPRLR = molecular target: T2, hPRLR; experiment: hGH-mediated pSTAT5 in T84 cells, Western blot; assay type: cell-based; details: 50 nM inhibitor with 2.5 nM hGH, 20 min
Experimental: SK-MEL-28, MALME-3M, and T84 cells were grown and maintained in Eagle's Minimal Essential Medium. IM9 and L cells were grown in RPMI-1640 media and Dulbecco's modified Eagle's medium, respectively. All growth media was supplemented with 10% fetal bovine serum and 1× antibiotic-antimycotic […] solution. Cells were grown at 37 °C under a 5% CO2 atmosphere in a humidified incubator, and growth media was replaced every 48 h during incubation. No hGH was present in or added to the growth media unless specifically indicated. […]
Following treatment, the cells were harvested at the indicated time points, and the total protein was extracted. […] Sample protein concentration was quantified using a Bradford assay with bovine serum albumin as the protein standard. Absorbance at 595 nm was measured using a Spectramax 250 multimode plate reader (Molecular Devices) and processed using SoftmaxPro v4.7.1 software.
Cytosolic fractions from treated cells were thawed on ice, and 80 μg protein was loaded onto polyacrylamide gels for separation by SDS-PAGE. […] Chemiluminescence signals were detected using a GelDoc (BioRad) fluorescence imager. […] Percent inhibition was then measured by subtracting the pSTAT5 band intensity in each lane from the pSTAT5 band intensity of hGH-treated samples. […]

[2] = Stability of hGH and pegvisomant in human serum (Western blot); assay type: in vitro ADME; details: RPMI with 25% (v/v) heat-inactivated human AB serum, 37 °C, 25 μg/ml protein, SDS-PAGE/Western blot densitometry, average of three experiments
Experimental: as §1

[3] = molecular target: T3, human prolactin receptor (human (endogenous in T84, MALME-3M))
[4] = molecular target: human growth hormone receptor (human (endogenous in SK-MEL-28, MALME-3M, IM9)) (UniProt P10912)
Sequence of human growth hormone receptor (human (endogenous in SK-MEL-28, MALME-3M, IM9)) (P10912 19-638): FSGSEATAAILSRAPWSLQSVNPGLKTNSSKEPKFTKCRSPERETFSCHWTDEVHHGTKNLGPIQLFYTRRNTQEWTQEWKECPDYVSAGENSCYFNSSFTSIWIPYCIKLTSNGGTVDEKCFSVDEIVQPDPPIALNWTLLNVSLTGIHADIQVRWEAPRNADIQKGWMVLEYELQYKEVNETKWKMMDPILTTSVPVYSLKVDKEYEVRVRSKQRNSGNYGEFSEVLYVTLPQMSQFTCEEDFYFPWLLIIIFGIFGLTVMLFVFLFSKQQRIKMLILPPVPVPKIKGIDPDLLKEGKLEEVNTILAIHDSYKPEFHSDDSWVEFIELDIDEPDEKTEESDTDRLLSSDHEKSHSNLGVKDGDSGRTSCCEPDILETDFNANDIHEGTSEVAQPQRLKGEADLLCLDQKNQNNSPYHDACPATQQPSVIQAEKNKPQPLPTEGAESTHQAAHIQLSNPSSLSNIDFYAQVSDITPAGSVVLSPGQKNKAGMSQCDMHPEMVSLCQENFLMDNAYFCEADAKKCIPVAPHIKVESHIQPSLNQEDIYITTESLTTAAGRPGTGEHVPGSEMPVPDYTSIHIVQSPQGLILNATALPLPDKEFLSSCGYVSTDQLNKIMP

[5] = molecular target: T4, mouse GHR (mouse (endogenous in L fibroblasts))
[6] = molecular target: human growth hormone receptor (human (endogenous in SK-MEL-28, MALME-3M, IM9)) (UniProt P10912); remark: listed apart in the source

Row | Molecule | time to full degradation by trypsin [1] | suppression of hGH-mediated phosphorylation of STAT5 (hPRLR) | protein remaining intact after 48 h in human serum [2] | inhibition of hPRL-induced pSTAT5 (Western blot) in MALME-3M cells treated with 2.5 nM hPRL and S1H; pair blocked: hPRL with hPRLR [3] | inhibition of hGH-induced pSTAT5 (Western blot) in MALME-3M cells treated with 2.5 nM hGH and 50 nM S1H; pair blocked: hGH with hGHR [4] | suppression of hGH-mediated pSTAT5 (Western blot) in mouse L fibroblasts co-treated with GH and 200 nM S1H; pair blocked: GH with the GHR of the L cells [5] | suppression of hGH-mediated pSTAT5 (Western blot) in IM9 cells co-treated with 2.5 nM hGH and 200 nM S1H; pair blocked: hGH with hGHR [6] | suppression of hGH-mediated pSTAT5 (Western blot) in MALME-3M cells co-treated with 2.5 nM hGH and 200 nM S1H; pair blocked: hGH with hGHR [6] | suppression of hGH-mediated pSTAT5 (Western blot) in SK-MEL-28 cells co-treated with 2.5 nM hGH and S1H, 100 nM (46%) to 200 nM (67%); pair blocked: hGH with hGHR [6]
1 | pegvisomant [reference compound] | 4 h | 27% | 76% | – | – | – | – | – | –
2 | Ac-YIPKEQKYSFLQNPQT-NH2 [S1H peptide (site 1-binding helix)] | – | – | – | 49% | 40% | 36% | 67% | 56% | 67%
